According to article PMC10870172, “Single-molecule FRET probes allosteric effects on protein-translocating pore loops of a AAA+ machine” (Biophysical Journal, 2024):
Changes are numbered by the printed parent chain. Numbers in names are those of the source.

B1: ClpB (N-terminally truncated, from residue 141) K204T (domain or fragment, Thermus thermophilus, UniProt Q9RA63 141-854, looked up)
chain: VQTEHAESTYNALEQYGIDLTRLAAEGKLDPVIGRDEEIRRVIQILLRRTKNNPVLIGEPGVGTTAIVEGLAQRIVKGDVPEGLKGKRIVSLQMGSLLAGAKYRGEFEERLKAVIQEVVQSQGEVILFIDELHTVVGAGKAEGAVDAGNMLKPALARGELRLIGATTLDEYREIEKDPALERRFQPVYVDEPTVEETISILRGLKEKYEVHHGVRISDSAIIAAATLSHRYITERRLPDKAIDLIDEAAARLRMALESAPEEIDALERKKLQLEIEREALKKEKDPDSQERLKAIEAEIAKLTEEIAKLRAEWEREREILRKLREAQHRLDEVRREIELAERQYDLNRAAELRYGELPKLEAEVEALSEKLRGARFVRLEVTEEDIAEIVSRWTGIPVSKLLEGEREKLLRLEEELHKRVVGQDEAIRAVADAIRRARAGLKDPNRPIGSFLFLGPTGVGKTELAKTLAATLFDTEEAMIRIDMTEYMEKHAVSRLIGAPPGYVGYEEGGQLTEAVRRRPYSVILFDEIEKAHPDVFNILLQILDDGRLTDSHGRTVDFRNTVIILTSNLGSPLILEGLQKGWPYERIRDEVFKVLQQHFRPEFLNRLDEIVVFRPLTKEQIRQIVEIQLSYLRARLAEKRISLELTEAAKDFLAERGYDPVFGARPLRRVIQRELETPLAQKILAGEVKEGDRVQVDVGPAGLVFAVPARVEA
notes: ClpB, Thermus thermophilus, N-terminal domain truncated, starting at residue 141 (Val); numbering as in full-length TT ClpB; also called A1; Walker A1; source: E. coli, purified
B2: ClpB (N-terminally truncated, from residue 141) double Walker B mutant E271A/E668A (domain or fragment, Thermus thermophilus, UniProt Q9RA63 141-854, looked up)
chain: B1 chain with T64K, E131A, E528A
notes: ClpB, Thermus thermophilus, N-terminal domain truncated, starting at residue 141 (Val); numbering as in full-length TT ClpB; also called BB; source: E. coli, purified
B3: ClpB (N-terminally truncated, from residue 141) E271A (domain or fragment, Thermus thermophilus, UniProt Q9RA63 141-854, looked up)
chain: B1 chain with T64K, E131A
notes: ClpB, Thermus thermophilus, N-terminal domain truncated, starting at residue 141 (Val); numbering as in full-length TT ClpB; also called B1; Walker B1; source: E. coli, purified
B4: Thermus thermophilus ClpB variant with truncated N-terminal domain, starting at residue 141 (Val) (domain or fragment)
chain: not shown
notes: ClpB, Thermus thermophilus, N-terminal domain truncated, starting at residue 141 (Val); numbering as in full-length TT ClpB; no cysteine replacement is printed; Theoretical MW of the hexamer 484.8 kDa (D1:p9); also called wt; dNClpB; source: E. coli, purified
B5: ClpB (N-terminally truncated, from residue 141) S359C-Y646C, labelled with Alexa Fluor 488 and Alexa Fluor 594 (domain or fragment)
chain: not shown
modifications: Alexa Fluor 488 C5 maleimide and Alexa Fluor 594 C5 maleimide on the cysteines at 359 and 646
notes: ClpB, Thermus thermophilus, N-terminal domain truncated, starting at residue 141 (Val); numbering as in full-length TT ClpB; The labelled protomer alone, as mixed 1:100 with unlabelled ClpB (Dm4); also called PL3; PL3 construct S359C-Y646C; source: E. coli, purified, labelled
B6: κ-casein (natural protein)
chain: not shown
notes: κ-casein (Sigma Aldrich), unlabelled soluble model substrate protein; also called model substrate protein; source: bought: Sigma Aldrich
B7: ClpB (N-terminally truncated, from residue 141) E668A (domain or fragment)
chain: not shown
notes: ClpB, Thermus thermophilus, N-terminal domain truncated, starting at residue 141 (Val); numbering as in full-length TT ClpB; also called B2; Walker B2; source: E. coli, purified
B8: ClpB (N-terminally truncated, from residue 141) K347A (domain or fragment)
chain: not shown
notes: ClpB, Thermus thermophilus, N-terminal domain truncated, starting at residue 141 (Val); numbering as in full-length TT ClpB; also called hyper; hyperactive mutant; source: E. coli, purified

Columns and labels:
[1] = target: the molecule itself; test: native gel or EMSA; native PAGE (6% acrylamide) of 1:100 labeled:unlabeled ClpB samples after the refolding and mixing procedure; stained with Coomassie Blue, panel a also imaged with a Typhoon scanner at 532 nm; run at 4°C, 30 V, 2 mM ATP, 4 mM Mg2+
[2] = target: the molecule itself; test: native gel or EMSA; native gel (6% acrylamide), stained with Coomassie Blue; run at 4°C, 30 V, 2 mM ATP, 4 mM Mg2+; NativeMark Unstained Protein Standard
[3] = target: B4; test: native gel or EMSA; native PAGE (6% acrylamide) of 1:100 labeled:unlabeled ClpB samples after the refolding and mixing procedure; stained with Coomassie Blue, panel a also imaged with a Typhoon scanner at 532 nm; run at 4°C, 30 V, 2 mM ATP, 4 mM Mg2+; settings: both partners purified
[4] = target: T1, PL3 BB: reassembled ClpB hexamer with one Alexa-labelled S359C-Y646C E271A/E668A protomer among unlabelled … (Thermus thermophilus, UniProt Q9RA63 141-854; Q9RA63 141-854, S359C | Y646C | E271A | E668A | E271A | E668A, Alexa Fluor 488 C5 maleimide and Alexa Fluor 594 C5 maleimide on the cysteines at 359 and 646); test: other fluorescence titration; single-molecule FRET on freely diffusing reassembled ClpB hexamers (1:100 labeled:unlabeled, ~50 pM labeled, ~5 nM total ClpB), increasing concentrations of unlabeled κ-casein; ratio of the H2MM-derived population of state 1 with and without casein fitted to a simple binding isotherm; 25 mM HEPES, 25 mM KCl, 10 mM MgCl2, 2 mM ATP, 0.01% Tween 20, pH 8, 22°C; settings: both partners purified
T1 construct: ClpB, Thermus thermophilus, N-terminal domain truncated, starting at residue 141 (Val); numbering as in full-length TT ClpB; ClpB, Thermus thermophilus, N-terminal domain truncated, starting at residue 141 (Val), unlabelled cysteine-less; With the 1:100 ratio most hexamers hold no labelled protomer; only hexamers with one labelled protomer give the signal; also called PL3 double-Walker B …

[5] = target: T2, PL1 BB: reassembled ClpB hexamer with one Alexa-labelled S236C-S359C E271A/E668A protomer among unlabelled … (Thermus thermophilus, UniProt Q9RA63 141-854; Q9RA63 141-854, S236C | S359C | E271A | E668A | E271A | E668A, Alexa Fluor 488 C5 maleimide and Alexa Fluor 594 C5 maleimide on the cysteines at 236 and 359); test: as above; settings: both partners purified
T2 construct: ClpB, Thermus thermophilus, N-terminal domain truncated, starting at residue 141 (Val); numbering as in full-length TT ClpB; ClpB, Thermus thermophilus, N-terminal domain truncated, starting at residue 141 (Val), unlabelled cysteine-less; With the 1:100 ratio most hexamers hold no labelled protomer; only hexamers with one labelled protomer give the signal; also called PL1 double-Walker B …

## B1
[1]
  binding result: binds

## B2
[2]
  stoichiometry N: 6

## B3
[1]
  binding result: binds

## B4
[2]
  stoichiometry N: 6

## B5
[3]
  binding result: binds

## B6
[4]
  Kd: 1600 nM
[5]
  Kd: 2000 nM

## B7
[1]
  binding result: binds

## B8
[1]
  binding result: binds
